The results in this text go back to article PMC7113306.

The experiment deals with T1, ALK2-Fc, Q04771.
T1 chain: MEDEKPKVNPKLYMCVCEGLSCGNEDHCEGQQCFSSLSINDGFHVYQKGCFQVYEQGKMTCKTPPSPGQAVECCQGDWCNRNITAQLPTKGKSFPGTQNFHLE
The experiment in a line: SPR. As to conditions: ligand; chains chain; remark: other sources report otherwise.

B1: BMP9 GF-domain (bone morphogenetic protein 9 growth factor domain), Q9UK05 320-429 (protein)
chain: SAGAGSHCQKTSLRVNFEDIGWDSWIIAPKEYEAYECKGGCFFPLADDVTPTKHAIVQTLVHLKFPTKVGKACCVPTKLSPISVLYKDDMGVPTLKYHYEGMSVAECGCR
Usually Kd stands for the concentration at which binding is half-saturated. On to B1, for which the Kd is 83 nM.
